Assay results reported in article PMC11677236.

Molecular target: pyruvate kinase M2 (PKM2), endogenous (human (endogenous in A375 and G361)) (UniProt P14618)
Assay: native gel or EMSA; BN-PAGE of cell lysates with β-actin as loading control; A375 with TIPE interference, G361 with TIPE overexpression; dimer and tetramer bands of PKM2

pyruvate kinase M2 (PKM2), endogenous, P14618 1-531 (enzyme; other documents disagree on this pair), sequence (P14618 whole entry): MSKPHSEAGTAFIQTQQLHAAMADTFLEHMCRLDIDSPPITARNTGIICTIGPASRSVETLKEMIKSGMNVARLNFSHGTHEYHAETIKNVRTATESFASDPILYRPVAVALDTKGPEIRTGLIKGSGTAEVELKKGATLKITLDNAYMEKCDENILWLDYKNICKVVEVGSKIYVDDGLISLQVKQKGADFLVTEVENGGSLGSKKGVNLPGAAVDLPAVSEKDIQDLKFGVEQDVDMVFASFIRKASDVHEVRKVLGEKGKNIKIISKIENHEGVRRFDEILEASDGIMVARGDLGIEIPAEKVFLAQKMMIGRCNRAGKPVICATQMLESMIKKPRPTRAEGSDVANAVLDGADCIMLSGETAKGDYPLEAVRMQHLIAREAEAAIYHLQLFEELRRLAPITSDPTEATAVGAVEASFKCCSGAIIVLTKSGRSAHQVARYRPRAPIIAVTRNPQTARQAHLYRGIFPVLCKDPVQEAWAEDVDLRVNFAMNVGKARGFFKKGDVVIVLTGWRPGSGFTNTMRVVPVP

stoichiometry N: 2
Substance: pyruvate kinase M2 (PKM2), endogenous, P14618 1-531 (enzyme; other documents disagree on this pair)
